Test results reported in PMC4539990.

Molecular target: purified FLAG-cortactin (rat) (UniProt Q66HL2)
Assay: pull-down

Chain of UniProt Q66HL2 (Q66HL2 whole entry): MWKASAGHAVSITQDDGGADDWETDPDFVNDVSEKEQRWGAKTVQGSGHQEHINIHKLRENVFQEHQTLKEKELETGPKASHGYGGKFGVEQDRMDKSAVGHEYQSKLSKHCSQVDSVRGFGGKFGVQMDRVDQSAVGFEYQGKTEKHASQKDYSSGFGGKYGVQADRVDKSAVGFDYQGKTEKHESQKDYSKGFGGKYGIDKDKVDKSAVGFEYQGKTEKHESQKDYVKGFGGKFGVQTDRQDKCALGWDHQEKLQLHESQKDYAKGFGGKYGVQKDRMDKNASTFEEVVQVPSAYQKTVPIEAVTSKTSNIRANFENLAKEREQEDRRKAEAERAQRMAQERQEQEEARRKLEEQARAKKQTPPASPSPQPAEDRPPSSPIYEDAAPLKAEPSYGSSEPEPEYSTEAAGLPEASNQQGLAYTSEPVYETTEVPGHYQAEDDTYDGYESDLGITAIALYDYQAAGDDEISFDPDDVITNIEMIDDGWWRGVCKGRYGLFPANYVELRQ

Q: With “purified shootin1 wild type (natural protein)” as the substance, how does the Kd read?
A: The Kd was 25 nM.
